Legend:
human IL-1β [1] = target: T1, human IL-1β (human, UniProt P01584 117-269); assay: competition ELISA on coated human IL-1β against biotinylated Mu007, average of three experiments
T1 construct: mature; also called mature human IL-1β; Interleukin-1β
Experimental: (§1) Wells of 96-well ELISA plates (Nunc-lmmuno plate, Cat # 439454, NalgeNunc) were coated with 100 μL of 0.5. μg/mL of human IL-1β in 0.2M sodium carbonate-bicarbonate buffer (pH 9.4) overnight at 4° C., washed with Wash Buffer, blocked with Superblock blocking buffer for 30 min at 37° C., and washed again with Wash Buffer. A mixture of biotinylated Mu007 (0.16 μg/mL final concentration) and competitor antibody (Mu007, Hu007, or Hu007 analogs starting at 100 μg/mL final concentration and serial 3-fold dilutions) in ELISA Buffer were added in triplicate in a final volume of 100 μL per well. As a no-competitor control, 100 μL of 0.16 μg/mL biotinylated Mu007 was used. As a background control, 100 gLL of ELISA Buffer was used. ELISA plates were incubated at 37° C. for 2 hr. After washing the wells with Washing Buffer, 100 μL of 1 μg/mL HRP-conjugated streptavidin (Jackson ImmunoResearch) was added to each well. ELISA plates were incubated at room temperature for 30 min and washed with Washing Buffer. For color development, 100 μL/well of ABTS substrate was added. Color development was stopped by adding 100 μL/well of 2% oxalic acid. Absorbance was read at 415 nm.
(§2) Mu007, Hu007 and Hu007 analogs competed with biotinylated Mu007 in a concentration-dependent manner. […]

cynomolgus monkey IL-1β = target: T2, cynomolgus monkey IL-1β (cynomolgus monkey, UniProt P79182 117-268); assay: BIAcore, antibody captured on anti-IgG CM5 chip, IL-1β flowed
T2 construct: also called Cynomolgus IL-1β
T2 sequence (looked up): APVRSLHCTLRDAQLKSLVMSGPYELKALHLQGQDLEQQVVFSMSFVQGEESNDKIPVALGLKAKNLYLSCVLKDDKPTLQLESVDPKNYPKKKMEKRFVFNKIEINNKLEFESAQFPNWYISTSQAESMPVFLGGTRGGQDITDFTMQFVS
Experimental: (§3) Affinities and specificities of both Hu007 and Mu007 were determined using BlAcore measurements. BIAcore™ is an automated biosensor system that measures molecular interactions. (Karlsson, et al. (1991) J. Immunol. Methods 145: 229-240). In these experiments antibody was immobilized at low density on a BIAcore™ chip. Ethyl-dimethylaminopropyl-carbodiimide (EDC) was used to couple reactive amino groups to purified goat anti-human IgG or goat anti-rabbit IgG to a flow cell of a carboxy-methyl (CM5) BIAcore™ sensor chip. Goat IgG was diluted in sodium acetate buffer, pH 4.0, and immobilized on a flow cell of a CM5 chip using EDC to yield 1000 response units. Unreacted sites were blocked with ehanolamine. A flow rate of 60 μL/min was used. Multiple binding/elution cycles were performed by injection a 100 μL solution of 15 μg/mL Mu007 or Hu007 followed by human IL-1β, mouse IL-1β, rat IL-1β, cynomolgus monkey IL-1β, porcine IL-1β, human IL-1 receptor antagonist, and human IL-1α at decreasing concentrations for each cycle (e.g., 1500, 750, 375, 188, 94, 47, 23.5, 12, and 0 picomolar). Elution was performed with glycine-HCl, pH 1.5. BIAevaluation™ was used to analyze the kinetic data. Table 2 depicts the affinities of Hu007 and Mu007 for human and cynomolgus IL-1β. […] Cynomolgus and porcine IL-1β had 100% binding to Hu007 relative to human IL-1β.

porcine IL-1β = target: T3, porcine IL-1β (porcine, UniProt P26889 115-267); assay: as above
T3 sequence (looked up): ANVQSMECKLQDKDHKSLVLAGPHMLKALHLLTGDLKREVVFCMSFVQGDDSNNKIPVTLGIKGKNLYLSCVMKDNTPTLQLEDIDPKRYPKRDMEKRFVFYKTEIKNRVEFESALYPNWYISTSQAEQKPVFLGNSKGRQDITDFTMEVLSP
Experimental: as §3

human IL-1β [2] = target: T1, human IL-1β; assay: as above
Experimental: as §3

human IL-1β [3] = target: T1, human IL-1β; assay: competition ELISA on coated human IL-1β against biotinylated Mu007, Exp. A
Experimental: as §1
(§4) Mu007, Hu007 and Hu007 analogs competed with biotinylated Mu007 in a concentration-dependent manner. The IC₅₀ values of Mu007 and Hu007 in three independent ELISA competition experiments, obtained using the computer software Prism (GraphPad Software Inc., San Diego, Calif.) are shown in Table 1. The relative binding of Hu007 was on average 89% of Mu007.

human IL-1β [4] = target: T1, human IL-1β; assay: competition ELISA on coated human IL-1β against biotinylated Mu007, average
Experimental: as §1, §2

human IL-1β [5] = target: T1, human IL-1β; assay: competition ELISA on coated human IL-1β against biotinylated Mu007, Exp. B
Experimental: as §1, §4

human IL-1β [6] = target: T1, human IL-1β; assay: BIAcore, antibody captured on protein A CM5 chip, human IL-1β flowed
Experimental: Affinities and specificities of several Hu007 analogs were determined using BIAcore measurements. BIAcore™ is an automated biosensor system that measures molecular interactions. (Karlsson, et al. (1991) J. Immunol. Methods 145: 229-240). In these experiments antibody was immobilized at low density on a BIAcore™ chip. Ethyl-dimethylaminopropyl-carbodiimide (EDC) was used to couple reactive amino groups to protein A to a flow cell of a carboxy-methyl (CM5) BIAcore™ sensor chip. Protein A was diluted in sodium acetate buffer, pH 4.5, and immobilized on a flow cell of a CM5 chip using EDC to yield approximately 1000 response units. Unreacted sites were blocked with ethanolamine. A flow rate of 60 μl/min was used. Multiple binding/elution cycles were performed by injection of 10 μl of a 5 μg/mL Hu007 solution, and heavy chain CDR2 analogs N55D, N55S, N55Q, G56A, and G56V, followed by human IL-1β at decreasing concentrations for each cycle (e.g. 1500, 750, 375, 188, and […]). Elution was performed with glycine-HCl, pH 1.5. BIAevaluation™ was used to analyze the kinetic data. Table 5 depicts the affinities of Hu007 and the various Hu007 analogs for human IL-1β.

human IL-1β [7] = target: T1, human IL-1β; assay: cell-based or functional assay

B1: humanized antibody Hu007 (antibody, human IgG1, kappa, V domains shown)
VH: QVQLVQSGAEVKKPGASVKVSCKVSGYTFSRYWIEWVRQAPGKGLEWIGEILPGNGNINYNEKFKGKATITADTSTDTAYMELSSLRSEDTAVYYCSTIYYDYDQGFTYWGQGTLVTVSS
VL: DIQMTQSPSSLSASVGDRVTITCKASQDIDRYLSWFQQKPGKAPKSLIYRVKRLVDGVPSRFSGSASGTDYTLTISSLQPEDFATYYCLQYDEFPYTFGQGTKLEIKR
notes: Human IgG1 kappa; also called WT; Hu007 WT
Human IL-1β [1]
  IC50: 0.35 µg/mL
Cynomolgus monkey IL-1β
  Kd: 0.0104 nM
  binding relative to human IL-1β: 100%
Porcine IL-1β
  binding relative to human IL-1β: 100%
Human IL-1β [2]
  Kd: 0.0102 nM
Human IL-1β [3]
  Hu007/Mu007 × 100 (IC50 ratio, relative binding against Mu007): 98%
  IC50: 0.39 µg/mL
Human IL-1β [4]
  Hu007/Mu007 × 100 (IC50 ratio, relative binding against Mu007): 89%
Human IL-1β [5]
  Hu007/Mu007 × 100 (IC50 ratio, relative binding against Mu007): 88%
  IC50: 0.35 µg/mL
Human IL-1β [6]
  Kd: 0.0105 nM
Human IL-1β [7]
  IC50, inhibition of IL-1β stimulated proliferation of T1165.17 cells (3H-thymidine), average of three experiments: 0.48 nM
  efficacy relative to Mu007 in the murine model of human IL-1β induced IL-6: ~0.33 fraction of Mu007
